Measurements from paper PMC6326804, “Structural insights into a unique preference for 3′ terminal guanine of mirtron in Drosophila TUTase tailor” (Nucleic Acids Research, 2018).

Experiments:
Tailor-C [1] = target: T1, Tailor-C (Drosophila melanogaster, UniProt Q9VI58, D343A); assay: X-ray crystal structure (crystal soaking), […] A; type: binding; settings: D343A crystals soaked with 10 mM UTP and 20 mM MgCl2 for 10 min; active site of catalytic groove
T1 construct: core catalytic domain, residues 202-560; N-terminal 8xHis-SUMO tag cut by ULP1; E. coli host

Tailor-ZnC = target: T2, Tailor-ZnC (Drosophila melanogaster, UniProt Q9VI58); assay: in-vitro nucleotide transferase assay, denaturing PAGE of Cy5-labelled RNA; type: biochemical; settings: 1 mM UTP, 200 nM Cy5 truncated pre-mir-1003, 10 mM MgCl2, pH 7.2, 25 °C
T2 construct: core domain with possible N-terminal C2H2 zinc finger, residues 137-560; N-terminal 8xHis-SUMO tag cut by ULP1; E. coli host

Tailor-C V328I = Tailor-C V328I (Drosophila, UniProt Q9VI58 202-560, V328I); assay: EMSA; no Mg2+ added; EMSA: 25 mM Tris-HCl pH 7.2, 100 mM NaCl, 5 mM DTT, 500 nM Cy5-RNA, 0-2.5 uM protein, 30 min on ice; 6% native gel at 4 C; settings: protein: recombinant; tags: 8xHis-SUMO tag removed by ULP1; label: 5'-Cy5; single strand
Tailor-C V328L = Tailor-C V328L (Drosophila, UniProt Q9VI58 202-560, V328L); assay: as above; settings: protein: recombinant; tags: 8xHis-SUMO tag removed by ULP1; label: 5'-Cy5; single strand
Tailor-C V328R = Tailor-C V328R (Drosophila, UniProt Q9VI58 202-560, V328R); assay: as above; settings: protein: recombinant; tags: 8xHis-SUMO tag removed by ULP1; label: 5'-Cy5; single strand
Tailor-C [2] = target: Tailor-C (Drosophila, UniProt Q9VI58 202-560); assay: crystal structure; EMSA: 25 mM Tris-HCl pH 7.2, 100 mM NaCl, 5 mM DTT, 500 nM Cy5-RNA, 0-2.5 uM protein, 30 min on ice; 6% native gel at 4 C; settings: protein: recombinant; tags: 8xHis-SUMO tag removed by ULP1; single strand
Tailor-C (Drosophila, UniProt Q9VI58 202-560), sequence (Q9VI58 202-560): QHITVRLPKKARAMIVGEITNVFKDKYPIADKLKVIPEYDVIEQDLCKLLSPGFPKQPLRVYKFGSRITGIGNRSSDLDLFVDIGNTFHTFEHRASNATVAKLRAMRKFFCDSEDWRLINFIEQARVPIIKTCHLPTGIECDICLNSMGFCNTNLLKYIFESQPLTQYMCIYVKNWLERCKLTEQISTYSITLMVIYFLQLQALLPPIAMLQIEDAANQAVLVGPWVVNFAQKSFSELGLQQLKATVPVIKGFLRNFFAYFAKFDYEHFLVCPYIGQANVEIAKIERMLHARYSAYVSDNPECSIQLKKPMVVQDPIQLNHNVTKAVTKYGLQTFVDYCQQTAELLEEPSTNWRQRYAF

Tailor-C V328I, sequence (Q9VI58 202-560 V328I): as the sequence (Q9VI58 202-560) above, with V127I counted along it
T1 sequence (Q9VI58 202-560 D343A): as the sequence (Q9VI58 202-560) above, with D142A counted along it
Tailor-C V328R, sequence (Q9VI58 202-560 V328R): as the sequence (Q9VI58 202-560) above, with V127R counted along it
T2 sequence (Q9VI58 137-560): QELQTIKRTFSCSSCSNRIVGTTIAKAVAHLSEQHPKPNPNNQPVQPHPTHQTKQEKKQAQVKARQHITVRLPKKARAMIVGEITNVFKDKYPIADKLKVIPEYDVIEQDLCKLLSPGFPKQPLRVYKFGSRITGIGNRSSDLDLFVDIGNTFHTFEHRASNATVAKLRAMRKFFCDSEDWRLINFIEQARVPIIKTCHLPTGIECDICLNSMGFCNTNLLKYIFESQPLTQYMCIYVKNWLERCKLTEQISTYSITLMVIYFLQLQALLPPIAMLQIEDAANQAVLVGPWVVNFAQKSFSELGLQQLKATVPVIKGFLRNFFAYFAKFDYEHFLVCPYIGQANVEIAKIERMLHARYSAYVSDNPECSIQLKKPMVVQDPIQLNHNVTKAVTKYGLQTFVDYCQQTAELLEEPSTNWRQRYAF
Tailor-C V328L, sequence (Q9VI58 202-560 V328L): as the sequence (Q9VI58 202-560) above, with V127L counted along it

With `O=c1ccn([C@@H]2O[C@H](COP(=O)(O)OP(=O)(O)OP(=O)(O)O)[C@@H](O)[C@H]2O)c(=O)[nH]1` [UTP] the “X-ray crystal structure (crystal soaking), 1.74 A” value (Tailor-C [1]) was “The crystals of the complex of D343A with UTP were obtained by soaking crystals” and the “in-vitro nucleotide transferase assay, denaturing PAGE of Cy5-labelled RNA” value (Tailor-ZnC) was “Purified Tailor-ZnC, Tailor-C and mutants were assayed for oligouridylation activity”.

B1: truncated miR-1003 (3'G) (ssRNA)
RNA: CAUAUUCACAG
B1: binds (Tailor-C V328I); binds (Tailor-C V328L); binds (Tailor-C V328R).

B2: AGUU (ssRNA)
RNA: AGUU
B2: binds (Tailor-C [2]).

B3: AGU (ssRNA)
RNA: AGU
B3: binds (Tailor-C [2]).

B4: U4 (ssRNA)
RNA: UUUU
B4: binds (Tailor-C [2]).
